The test deals with SpyCatcher-elastin-CarHC-elastin-SpyCatcher. The experiment in a line: cell-based or functional assay.

With mCherry, the free mCherry detected in the supernatant of the AAA+BCB hydrogel, under both dark and bright conditions is 50%.

The values above are taken from patent US20190345227A1.
